Measured values as given in US7250304B2, “Functional assay of high-density lipoprotein” (The Regents of the University of California, priority 2000, dated 2007).

Assays:
[1] = tested on: human artery wall cell cocultures; test: LDL oxidation by human artery wall cell cocultures (lipid hydroperoxides); type: cell-based
Description: (§1) The wells of the microtiter plates were treated with 0.1% gelatin at 37° C. overnight. HASMC were added at a confluent density of 1×10^5 cells/cm^2. Cells were cultured for 2 d at which time they had covered the entire surface of the well and had produced a substantial amount of extracellular matrix. HAEC were subsequently added at 2×10^5 cells/cm^2 and were allowed to grow forming a complete monolayer of confluent HAEC in 2 d. In all experiments, HAEC and autologous HASMC (from the same donor) were used at passage levels of four to six.
In general, the cocultures were treated with native LDL (250 μg/ml) in the absence or presence of HDL for 8 h. The supernatants were collected and used for determination of lipid hydroperoxide levels. The cocultures were subsequently washed and fresh culture medium 199 (M199) without any additions was added and incubated for an additional 8 hrs. This allowed the collection of monocyte chemotactic activity released by the cells as a result of stimulation by the oxidized LDL. At the end of incubation, the supernatants were collected from cocultures, diluted 40-fold, and assayed for monocyte chemotactic activity. […] The number of migrated monocytes was determined microscopically and expressed as the mean±SD of 12 standardized high power fields counted in quadruple wells.
Statistical significance was determined by model 1 ANOVA. […]

[2] = tested on: Ox-PAPC, POVPC, PGPC, PEIPC; type: cell-based, human
[3] = tested on: human artery wall cell cocultures; test: Monocyte chemotaxis assay on coculture conditioned medium; type: cell-based; settings: cocultures incubated 8 hrs with agent, agent removed before LDL
Description: as §1
Monocytes were isolated using a modification of the Recalde method as previously described (Fogelman et al. (1988) J. Lipid Res. 29: 1243-1247) from the blood of normal volunteers after obtaining written consent under a protocol approved by the human research subject protection committee of the University of California, Los Angeles.
In general, the cocultures were treated with native LDL (250 μg/ml) in the absence or presence of HDL for 8 h. The supernatants were collected and used for determination of lipid hydroperoxide levels. The cocultures were subsequently washed and fresh culture medium 199 (M199) without any additions was added and incubated for an additional 8 hrs. […] The number of migrated monocytes was determined microscopically and expressed as the mean±SD of 12 standardized high power fields counted in quadruple wells.

B1: PON: purified human paraoxonase, HDL associated enzyme (protein, UniProt P27169 2-355, looked up)
Serum …: AKLIALTLLGMGLALFRNHQSSYQTRLNALREVQPVELPNCNLVKGIETGSEDLEILPNGLAFISSGLKYPGIKSFNPNSPGKILLMDLNEEDPTVLELGITGSKFDVSSFNPHGISTFTDEDNAMYLLVVNHPDAKSTVELFKFQEEEKSLLHLKTIRHKLLPNLNDIVAVGPEHFYGTNDHYFLDPYLQSWEMYLGLAWSYVVYYSPSEVRVVAEGFDFANGINISPDGKYVYIAELLAHKIHVYEKHANWTLTPLKSLDFNTLVDNISVDPETGDLWVGCHPNGMKIFFYDSENPPASEVLRIQNILTEEPKVTQVYAENGTVLQGSTVASVYKGKLLIGTVFHKALYCEL
B1 was tested, and the “ability of pretreated artery wall cocultures to oxidize LDL” value ([1]; cocultures incubated 8 hrs with agent, agent removed before LDL 250 μg/ml) was “rendered the artery wall cells incapable of oxidizing IDL”, the “oxidation by artery wall cells of LDL pre-incubated with the agent” value ([1]; human LDL incubated with agent, re-isolated, then cocultures 8 hrs) was “rendered the LDL resistant to oxidation” and the “biologic activity (induction of monocyte chemotactic activity) of Ox-PAPC, POVPC, PGPC, PEIPC after incubation with enzyme” value [2] was “destruction of the biologic activity of each”. For the same molecule, the “LDL-induced monocyte chemotaxis in pretreated cocultures” value [3] was “prevented LDL-induced monocyte chemotaxis”.
